# Results as given in patent publication US20230348540A1 (UNIVERSITY OF COPENHAGEN, published 2023).
# Ends that are not written are not given here. * marks the point of attachment. Biotin = O=C1N[C@H]2[C@H](CS[C@H]2CCCCC(=O)*)N1; Ahx = NCCCCCC(=O)O
# B1: GCN4p1-GS4-GS4 (non-binding control peptide) (peptide)
# peptide: not shown
# modifications: N-terminal biotin joined through 6-aminohexanoic acid (Ahx)
# notes: also called biotin-Ahx-GCN4p1-GS4-GS4; biotin-Ahx-GCN4p1-GS-GS
# Target: T1, PICK1 protein in mouse spinal cord lysate (mouse, UniProt Q62083 1-416)
# T1 construct: Endogenous protein, detected by Western blot after pull-down
# Assay: pull-down with biotinylated peptide on streptavidin beads from mouse spinal cord lysate, western blot [D]
row,Binder,binding result
1,B1,no binding

# Target: T2, Full length rat PICK1 (Protein Interacting with C Kinase-1) (rat, UniProt Q9EP80 1-416)
# T2 construct: mature; Residues left by the cleaved tag are not described; also called purified PICK1
# Assay: FP competition (FIG. 17C)
row,Binder,binding result
1,{Biotin-Ahx}-GEIAKSLKEIAKSLKEIAWSLKEIAKSLKGGGGSNSVRV [CC-Hex2-GS4-NSVRV],binds

# Target: T2, Full length rat PICK1 (Protein …)
# Assay: FP competition on purified PICK1, tracer 5FAM-HWLKV 20 nM; fold change against HWLKV [panel 4 from the left]
row,Binder,binding result
1,FYIIV (also called DAT-C5 variant),binds
2,FYVIV (also called DAT-C5 variant),binds
3,FEVRV (also called DAT-C5 variant),binds
4,FYIRV (also called DAT-C5 variant),binds
5,FEVIV (also called DAT-C5 variant),binds
6,FYVRV (also called DAT-C5 variant),binds
7,SVRV (also called DAT-C5 variant),binds
8,SIIV (also called DAT-C5 variant),binds
9,SVIV (also called DAT-C5 variant),binds
10,EIIV (also called DAT-C5 variant),binds

# Target: T3, TRX-6xHis-hPSD95 1-724 (full length human PSD-95) (human, UniProt P78352 1-724, Alexa488 label in the confocal experiment of Example 5 only)
# T3 construct: range 1-724; Purified by HisTrap and SEC; also called FL-PSD-95; not shown: TRX-6xHis tag encoded by the pET-MG-3C plasmid
# Assay: SDS-PAGE sedimentation assay
row,Binder,binding result
1,SNTANRRTTPV (also called Stg; RRTTPV monomer),binds

# Target: T2, Full length rat PICK1 (Protein …)
# Assay: FP competition on purified PICK1, tracer 5FAM-HWLKV 20 nM; fold change against HWLKV [panel 1 from the left]
row,Binder,binding result
1,NYIRV (also called DAT-C5 variant),binds
2,NYIIV (also called DAT-C5 variant),binds
3,NEIRV (also called DAT-C5 variant),binds
4,NSIIV (also called DAT-C5 variant),binds
5,NSVIV (also called DAT-C5 variant),binds
6,NSVRV (also called DAT-C5 variant),binds
7,NEVRV (also called DAT-C5 variant),binds
8,NEIIV (also called DAT-C5 variant),binds
9,NSIRV (also called DAT-C5 variant),binds

# Target: T4, PSD-95 protein in mouse spinal cord lysate (mouse, UniProt Q62108 1-724, limits assumed)
# T4 construct: Endogenous protein, detected by Western blot after pull-down
# Assay: pull-down with biotinylated peptide on streptavidin beads from mouse spinal cord lysate, western blot [D]
row,Binder,binding result
1,B1,no binding

# Target: T2, Full length rat PICK1 (Protein …)
# Assay: FP competition on purified PICK1, tracer 5FAM-HWLKV 20 nM; fold change against HWLKV [panel 3 from the left]
row,Binder,binding result
1,FEIIV (also called DAT-C5 variant),binds
2,TYVRV (also called DAT-C5 variant),binds
3,FSVRV (also called DAT-C5 variant),binds
4,TYIRV (also called DAT-C5 variant),binds
5,TYVIV (also called DAT-C5 variant),binds
6,FSIRV (also called DAT-C5 variant),binds
7,TYIIV (also called DAT-C5 variant),binds
8,FSIIV (also called DAT-C5 variant),binds
9,FEIRV (also called DAT-C5 variant),binds

# Target: T5, PSD-95 PDZ1-2 (UniProt P78352 61-249, limits assumed)
# T5 construct: domain: PDZ1-2
# Assay: FP competition, tracer 5-FAM-(IETAV)2 5 nM, PSD-95 PDZ12 0.15 µM
# Text: FIG. 18: Fluorescence polarization competition binding curves for the unlabelled peptides. […] Data expressed as mean±SEM (n=3).
# The data was plotted using GraphPad Prism 8.3, and fitted to the ‘One site—Fit’ Kᵢ competition curve, to extract apparent KI values.
row,Binder,Ki [nM]
1,{Biotin-Ahx}-GEIAKSLKEIAKSLKEIAWSLKEIAKSLKGGGGSRRTTPV [CC-Hex2-GS4-RRTTPV],242
2,{Biotin-Ahx}-GEIAKSLKEIAKSLKEIAWSLKEIAKSLKGGGGSIETDV [CC-Hex2-GS4-IETDV],56

# Target: T2, Full length rat PICK1 (Protein …)
# Assay: FP competition, tracer 5-FAM-(HWLKV)2 10 nM, PICK1 (Example 8)
# Experimental: The plates were incubated 30-40 min on ice and the fluorescence polarization was measured on an Omega POLARstar plate (BMG LABTECH) reader using excitation filter at 485 nm and long pass emission filter at 520 nm. The data was plotted using GraphPad Prism 8.3, and fitted to the ‘One site—Fit’ Kᵢ competition curve, to extract apparent KI values.
row,Binder,Ki [nM]
1,{Biotin-Ahx}-GEIAKSLKEIAKSLKEIAWSLKEIAKSLKGGGGSHWLKV (also called CC-hex-GS4-HWLKV) [CC-Hex2-GS4-HWLKV],22.9
2,{Biotin-Ahx}-GELAAIKQELAAIKKELAAIKWELAAIKQGGGGSHWLKV (also called CC-tet2-GS4-HWLKV) [CC-Tet-GS4-HWLKV],2.47

# Target: T6, nNOS protein in mouse spinal cord lysate (mouse, UniProt Q9Z0J4 1-1429, limits assumed)
# T6 construct: Endogenous protein, detected by Western blot after pull-down
# Assay: pull-down with biotinylated peptide on streptavidin beads from mouse spinal cord lysate, western blot [D]
row,Binder,binding result
1,B1,no binding

# Target: T2, Full length rat PICK1 (Protein …)
# Assay: FP competition on purified PICK1, tracer 5FAM-HWLKV 20 nM; fold change against HWLKV [panel 5 from the left]
row,Binder,binding result
1,EVIV (also called DAT-C5 variant),binds
2,YVIV (also called DAT-C5 variant),binds
3,YIIV (also called DAT-C5 variant),binds
4,YIRV (also called DAT-C5 variant),binds
5,EVRV (also called DAT-C5 variant),binds
6,YVRV (also called DAT-C5 variant),binds
7,EIRV (also called DAT-C5 variant),binds

# Target: T2, Full length rat PICK1 (Protein …)
# Assay: FP competition on purified PICK1, tracer 5FAM-HWLKV 20 nM; fold change against HWLKV [panel 2 from the left]
row,Binder,binding result
1,TSVIV (also called DAT-C5 variant),binds
2,TEVRV (also called DAT-C5 variant),binds
3,NYVIV (also called DAT-C5 variant),binds
4,NYVRV (also called DAT-C5 variant),binds
5,TSIRV (also called DAT-C5 variant),binds
6,TSIIV (also called DAT-C5 variant),binds
7,TEVIV (also called DAT-C5 variant),binds
8,TEIRV (also called DAT-C5 variant),binds
